Measured values taken from US20110009597A1, “RECOMBINANT GANODERMA LUCIDIUM IMMUNOMODULATORY PROTEIN (rLZ-8) AND USES THEREOF” (priority 2008, published 2011).

Legend:
WBC = assay: Prevention of radiation leucopenia model of mice, WBC; format: in vivo; parameters: unit not given here; conditions: for WBC, 5th day (rLZ-8): 5th day of administration before radiation; for WBC, 5th day / WBC, 7th day: after 7.5 Gy γ-ray
Experimental: rLZ-8 preparation of sterile saline. Divide them into 5 μg·kg^−1, 2.5 μg·kg^−1, 1.25 μg·kg^−1, 0.62 μg·kg^−1 dose groups. 0.2 ml/vial.
Genlei™ Scimax™ [Recombinant human granulocyte colony-stimulating factor injection (rhG-CSF)], production lot: 20060403; 150 μg/vial is prepared with sterile normal saline into the preparation of 3.2 μg·kg^−1, 0.2 ml/vial.
The mice were irradiated by 7.5 Gy γ-ray (180 mV, 15 mA) and then divided into seven groups (n=10): (A) negative control; (B) 5 μg·kg−1 dose; (C) 2.5 μg·kg−1 dose; (D) 1.25 μg·kg−1 dose; (E) 0.62 μg·kg−1 dose; (F) positive control (Genlei™ Scimax™); (G) model group. Before modeling 5 days, mice in each group were administered with Genlei™ Scimax™ and rLZ-8 for 5 days, on the 5th day, mice were radiated, for 5 days, and on the 7th day, drew blood from tail, tested the number of WBC, weight spleen, calculated index of spleen.

NB4 = assay: Annexin V-FITC flow cytometry, apoptosis of NB4; format: cell-based; conditions: Annexin V/PI
Experimental: FACS Calibur flow cytometry, U.S. Becton-Dickinson.Coompany. NB4, HL-60. rLZ-8 is prepared with IMDM culture medium containing 2% FCS into the preparation of 0.1 μg·ml^−1, 0.5 μg·ml^−1, 2.5 μg·ml^−1, arsenic trioxide (As2O3) 0.5 μg·ml^−1 AnnexinV-FITC kit: combining buffer solution 4×; Propidium iodide solution (PI), 20 μg·ml−1, 0.2 ml; recombinant human Annexin V/FITC, 0.1 ml.
Establish NB4 normal control group, positive drug group (As2O3 0.5 μg·ml^−1), protein low-dose group (0.1 μg·ml^−1), medium-dose group (0.5 μg·ml^−1), high-dose group, (2.5 μg·ml^−1); establish HL-60 normal control group, protein low-dose group (0.1 μg·ml^−1), medium-dose group (0.5 μg·ml^−1), high-dose group, (2.5 μg·ml^−1).
Mix NB4 and HL-60 cell into 24-orifice plate respectively, 1 ml/hole supply rLZ-8 in different concentrates, set 3-orifice multipunches for each group. Put them in 37° C., 5% CO2 incubator for 24 h, collect the cells of each concentrate, washes the cells twice with pre-cooled PBS 4° C., with 250 μl binding buffer solution re-suspending cells and regulates the cell density to 1×10^6/ml, taking out 100 μl to 5 ml streaming tube, and add 5 μl Annexin V/FITC and 10 μl 20 μg·ml^−1 PI solution, after mixing put it in room temperature and lucifuged hatching 15 min, add 400 μl PBS by flow cytometry analysis.

[1] = test system: Human Chronic Myelogenous Leukemia K562 Cells; assay: Lethal effect of rLZ-8 on K562 cells (MTT, OD570nm); format: cell-based
Experimental: After sterilization of rLZ-8, we prepared 6 concentrations using IMDM culture medium, which are respectively 3.125 μg·ml^−1, 6.25 μb·ml^−1, 12.5 μg·ml^−, 25 μg·ml^−1, 50 μg·ml^−1, 100 μg·ml^−1.
On 96-orifice culture plate, the pilot aperture plus K562 tumor cells 0.1 ml and rLZ-8 0.1 ml, rLZ-8 concentrations from low to high; negative control group plus K562 tumor cells and culture medium of the 0.1 ml respectively; positive drug control group arsenic trioxide As2O3; make six-aperture multipunches for each group. Placing in 37° C., 5% CO2 incubator 48 h, adding MTT15 μl (5 mg ml^−1) prior to the termination of 4 h, after the termination of cell culture by adding 100 μl 0.1 mol L^−1 hydrochloric acid isopropyl alcohol, testing OD values570nm on the enzyme immunosorbent detector.

human erythrocyte = format: cell-based
Experimental: rLZ-8 prepares 5% of glucose solution into the preparation of 1 mg·ml^−1; blood cell suspension preparation: human blood 4 ml, 1000 r/min centrifugal 10 min, clears supernatant. […] Prepare the obtained erythrocyte with 5% glucose solution into 2% suspension for experiment.
Get 28 clean test tubes and number them, No. 1-5 for rLZ-8 drug group, No.6 for negative control group (5% glucose solution), No. 7 for positive control tube (distilled water), and a total of 4 parallel comparison tubes. By supplying 2% erythrocyte suspension, 5% glucose or distilled water in turn, shaking, put them into incubators 37° C.±0.5° C. immediately for incubation. Observe them every 15 min, 1 h after observe them once for 3 hours. Finishing the observation, put all the solution from the tubes into centrifugal drying tubes, 1500 r, 25 min. Clear the supernatant, read the blank distilled water tube for OD value to calculate the rate of hemolysis.

B1: rLZ-8: Recombinant Ganoderma Lucidum Immune Regulatory Protein expressed in Pichia pastoris (protein, UniProt P14945 2-111, looked up)
Immunomodulatory protein Ling …: SDTALIFRLAWDVKKLSFDYTPNWGRGNPNNFIDTVTFPKVLTDKAYTYRVAVSGRNLGVKPSYAVESDGSQKVNFLEYNSGYGIADTNTIQVFVVDPDTNNDFIIAQWN
WBC, 5th day (rLZ-8) (WBC; rLZ-8 0.62 μg·kg^−1): 10.7 ± 0.45
WBC, 5th day (WBC; rLZ-8 0.62 μg·kg^−1): 0.16 ± 0.31
WBC, 7th day (WBC; rLZ-8 0.62 μg·kg^−1): 0.40 ± 0.12
WBC, 5th day (rLZ-8) (WBC; rLZ-8 1.25 μg·kg^−1): 12.5 ± 0.45
WBC, 5th day (WBC; rLZ-8 1.25 μg·kg^−1): 0.25 ± 0.11
WBC, 7th day (WBC; rLZ-8 1.25 μg·kg^−1): 0.46 ± 0.11
WBC, 5th day (rLZ-8) (WBC; rLZ-8 2.5 μg·kg^−1): 12.8 ± 0.54
WBC, 5th day (WBC; rLZ-8 2.5 μg·kg^−1): 0.32 ± 0.15
WBC, 7th day (WBC; rLZ-8 2.5 μg·kg^−1): 0.45 ± 0.20
WBC, 5th day (rLZ-8) (WBC; rLZ-8 5 μg·kg^−1): 19.5 ± 0.32
WBC, 5th day (WBC; rLZ-8 5 μg·kg^−1): 0.32 ± 0.18
WBC, 7th day (WBC; rLZ-8 5 μg·kg^−1): 0.53 ± 0.35
Apoptosis rate (NB4; NB4, rLZ-8 0.1 μg·ml−1, 24 h): 21.0%
Apoptosis rate (NB4; NB4, rLZ-8 0.5 μg·ml−1, 24 h): 22.3%
Apoptosis rate (NB4; NB4, rLZ-8 2.5 μg·ml−1, 24 h): 34.0%
lethal effect in vitro on K562 tumor cells (in words) ([1]; 3.125-100 μg·ml^−1): strong lethal effect
Growth inhibition rate (%) ([1]; rLZ-8 3.125 μg ml^−1, 48 h): 34.7%
OD570 nm ([1]; rLZ-8 3.125 μg ml^−1, 48 h): 0.66 ± 0.03
Growth inhibition rate (%) ([1]; rLZ-8 6.25 μg ml^−1, 48 h): 42.6%
OD570 nm ([1]; rLZ-8 6.25 μg ml^−1, 48 h): 0.58 ± 0.03
Growth inhibition rate (%) ([1]; rLZ-8 12.5 μg ml^−1, 48 h): 48.5%
OD570 nm ([1]; rLZ-8 12.5 μg ml^−1, 48 h): 0.52 ± 0.05
Growth inhibition rate (%) ([1]; rLZ-8 25 μg ml^−1, 48 h): 69.3%
OD570 nm ([1]; rLZ-8 25 μg ml^−1, 48 h): 0.31 ± 0.02
Growth inhibition rate (%) ([1]; rLZ-8 50 μg ml^−1, 48 h): 75.2%
OD570 nm ([1]; rLZ-8 50 μg ml^−1, 48 h): 0.25 ± 0.04
Growth inhibition rate (%) ([1]; rLZ-8 100 μg ml^−1, 48 h): 81.2%
OD570 nm ([1]; rLZ-8 100 μg ml^−1, 48 h): 0.19 ± 0.03
hmolytic rate (human erythrocyte): < 5%
